Data published in patent US20190270815A1 (published 2019).
Positions count from the first letter of the chain named.

Legend:
[1] = molecular target: recombinant human PD-1 (human, UniProt Q15116 25-167); assay: SPR
[2] = molecular target: T1, human PD-1 expressed on cells (human, UniProt Q15116 25-288); assay: FACS
[3] = molecular target: T1, human PD-1 expressed on cells; assay: FACS blocking of PD-L1 binding

T1 sequence (Q15116 25-288): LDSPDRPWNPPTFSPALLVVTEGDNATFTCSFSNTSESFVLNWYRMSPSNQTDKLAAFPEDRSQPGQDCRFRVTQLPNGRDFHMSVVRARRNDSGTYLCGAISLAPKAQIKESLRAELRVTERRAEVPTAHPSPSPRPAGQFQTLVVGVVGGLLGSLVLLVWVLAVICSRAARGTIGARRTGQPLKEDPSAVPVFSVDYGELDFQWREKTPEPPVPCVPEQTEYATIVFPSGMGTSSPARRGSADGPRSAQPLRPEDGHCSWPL
Sequence of recombinant human PD-1 (Q15116 25-167): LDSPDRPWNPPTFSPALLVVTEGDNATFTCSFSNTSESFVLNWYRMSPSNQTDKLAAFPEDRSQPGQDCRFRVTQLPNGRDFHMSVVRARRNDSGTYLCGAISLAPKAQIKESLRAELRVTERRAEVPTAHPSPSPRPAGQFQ

B1: 1.139.15 hAb (antibody, V domains shown)
VH: QLQLQESGPGLVKPSETLSLTCTVSGGSISSTTYYWGWIRQPPGKGLEWIGSISYSGTTYYNPSLKSRVTIPVDTSKNQISLKLSSVTAADTSLYYCARHLGYNSNWYPFDYWGQGTLVTVSS
VL: QSALTQPPSVSGSPGQSVTISCTGTSSDVGSYNRVSWYQQPPGTAPEVIIYEVSNRPSGVPDRFSGSKSGNTASLTISGLQAEDEADYYCSSYTSSSTWVFGGGTKLTVL
Question: How did the Kd [1] turn out when B1 was run?
Answer: 3.71 nM

Question: What about the EC50 [2] of the same binder?
Answer: 1.92 nM

Question: What about the IC50 [3] of the same binder?
Answer: 3.1 nM

B2: 1.49.9 hAb (antibody, V domains shown)
VH: QLQLQESGPGLVKPSETLSLTCTVSGGSISSSTYYWGWIRQPPGKGLEWIGSISYSGSTYYNPSLKSRVTISVDTSKNQFSLKLSSVTDADTAVYYCARHLGYNGRYLPFDYWGQGTLVTVSS
VL: B1 VL with P8A, V18I, S31F, R34Y, P41H, T44K, I49M, E52D, P61S, S96I
Question: For B2, which Kd [1] is on record?
Answer: 1.07 nM

Question: What about the EC50 [2] of the same binder?
Answer: 2.15 nM

Question: And the IC50 [3]?
Answer: 4.21 nM

B3: 1.103.11 hAb (antibody, V domains shown)
VH: QLQLQESGPGLVKPSETLTLTCTVSADSISSTTYYWVWIRQPPGKGLEWIGSISYSGSTYYNPSLKSRVTVSVDTSKNQFSLKLNSVAATDTALYYCARHLGYNGRYLPFDYWGQGTLVTVSS
VL: QSALTQPASVSGSPGQSITISCTGTSSDVGFYNYVSWYQQHPGKAPELMIYDVSNRPSGVSDRFSGSKSGNTASLTISGLQAEDEADYYCSSYTNISTWVFGGGTKLTVL
Question: What does the source list for B3?
Answer: Kd [1]: 0.175 nM; EC50 [2]: 2.09 nM; IC50 [3]: 4.44 nM

B4: 1.7.3 hAb (antibody, V domains shown)
VH: B3 VH with A26G, S58N, V71I, Q79H, N85S
VL: B3 VL with S54T, N95S
Question: For B4, which Kd [1] is on record?
Answer: 0.176 nM

Question: What about the EC50 [2] of the same binder?
Answer: 2.44 nM

Question: And the IC50 [3]?
Answer: 3.51 nM

B5: 1.153.7 hAb (antibody, V domains shown)
VH: EVQLLESGGGLVQPGGSLRLSCAASGFTFSSHAMSWVRQAPGKGLEWVSTITGGGGSIYYADSVKGRFTISRDNSKNTLYLQMNSLRAEDTAVYYCAKNRAGEGYFDYWGQGTLVTVSS
VL: SYELTQPLSVSVALGQTARITCGGDNIGNKDVHWYQQKPGQAPVLVIYRDSNRPSGIPEGFSGSNSGNTATLTISRAQAGDEADYYCQVWDSIWVFGGGTKLTVL
Question: B5 was tested. Which Kd [1] did it give?
Answer: 2.79 nM

Question: What about the EC50 [2] of the same binder?
Answer: 2.62 nM

Question: And the IC50 [3]?
Answer: 4.49 nM
